In PMC7788105 (iScience, 2020):

Target: T1, human PD-1 (programmed cell death receptor 1) (human, UniProt Q15116 25-170, 15N-labeled in the AIDA-NMR assay; covalently labeled with a fluorophore in the MST assay)
T1 construct: Programmed cell death receptor 1 (PD-1, CD279), human; In the cell-based ICB assays hPD-1 stands on Jurkat effector cells; also called hPD-1; CD279
Experiment: MST; hPD-1 covalently labeled with a fluorophore, incubated with increasing concentrations of unlabeled hPD-L1 or mPD-L1; two independent dilution series, KD model
Details: both partners purified

T1 sequence (Q15116 25-170): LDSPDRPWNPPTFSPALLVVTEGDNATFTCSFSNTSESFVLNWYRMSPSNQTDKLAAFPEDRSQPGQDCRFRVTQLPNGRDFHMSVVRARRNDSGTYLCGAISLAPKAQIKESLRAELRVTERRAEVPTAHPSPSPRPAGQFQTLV

B1: mouse PD-L1 (ligand)
chain: FTITAPKDLYVVEYGSNVTMECRFPVERELDLLALVVYWEKEDEQVIQFVAGEEDLKPQHSNFRGRASLPKDQLLKGNAALQITDVKLQDAGVYCCIISYGGADYKRITLKVNAPY
modifications: fluorescently labeled in the MST assay with antibodies
notes: PD-L1, mouse; In the h/mICB assay mPD-L1 is endogenous on IFN-gamma-treated B16-F10/TCRAct cells; also called mPD-L1
Work on B1 yielded a Kd of 3.2 ± 0.2 µM.
